“Also recorded” adds a separate entry of the source.

Data set [1] is described as follows: Biodistribution in H460 tumor model. The settings on record: mouse, in vivo, 5 mg/kg. The text has this: (§1) In other studies, biodistribution of the conjugates was studied with H460 and H69 tumor models.
The test system of a further data set is H460 tumor model mice. Put plainly: Biodistribution in H460 tumor model. The settings on record: 5 mg/kg.
Text: as §1

Data set [2] is described as follows: Biodistribution in H69 tumor model. Conditions: mouse, in vivo, 5 mg/kg.
Text: as §1

Data set [3] in a line: Lu levels in tumor, kidney and liver of mice at 0.5 mg/kg. The settings on record: for Tumor uptake (comparison): vs Conjugate 1 and Conjugate 2.
In the next data set the test system is H69 tumor model mice. As to the kind of experiment: Biodistribution in H69 tumor model. The settings on record: H69 tumor model, 5 mg/kg, 48 h, individual animals.
Text: as §1

The nature of a further data set: in vivo. Conditions: female, Nude, mouse, iv, 3.7 MBq, total radioactivity. The method, then:
Radioactive conjugate accumulation was measured in tumor, plasma and healthy tissues of NCI-H460 tumor-bearing mice (lung cancer). […] For each tissue, the percent injected dose per gram of tissue % ID/g was calculated.

[4] abbreviates: Concentration in H460 tumor, H460 tumor model, individual animals.
Setting [5] is: Concentration in Mouse kidney, H460 tumor model, individual animals.
The mark [6] stands for this setting: Concentration in Mouse plasma, H460 tumor model, individual animals.

With `CCNC(=O)c1nnc(-c2cc(C(C)C)c(O)cc2O)n1-c1ccc(CN2CCN(C(=O)CCNC(=O)[C@@H](CCC(=O)O)NC(=O)[C@@H](CCC(=O)O)NC(=O)[C@@H](CCC(=O)O)NC(=O)CN3CCN4CCN5CCN(CC3)CC(=O)[O][Lu]([O]C(=O)C4)[O]C(=O)C5)CC2)cc1` [Conjugate 2], the level at time molar at 1 h came to 1170 nM in data set [1] (setting [4]); 1550 nM in data set [1] (setting [5]); 16 nM in data set [1] (Concentration in Mouse liver, H460 tumor model, individual animals). For the same molecule, the results for the level at time molar at 48 h in data set [1] (setting [4]) and in data set [1] (setting [5]) were 220 nM and 540 nM, respectively. The level at time molar at 24 h stood at 1450 nM in data set [1] (setting [5]); 650 nM in data set [1] (Tumor Levels, H460 (2), H460 study (2)); 240 nM in data set [2] (Concentration in H69 tumor, H69 tumor model, individual animals); 330 nM in data set [2] (Tumor Levels, H69, 5 mg/kg, H69). Also, the “Clearance from plasma” value with H460 tumor model mice (H460 and H69 tumor models) was “clear rapidly from plasma; also recorded: slightly superior”. Also, the “Tumor retention (comparison)” value in the data set on H460 tumor model mice (H460 and H69 tumor models, Conjugate 1 vs Conjugate 2) is “similar”. Besides, in the data set with H460 tumor model mice (H460 tumor model, 48 h, individual animals), the “Concentration in Mouse kidney” value was 0.54 µM. In addition, the “Average Lu in kidney” value in data set [3] was found to be 2.86 % ID/g. For the same molecule, the “Average Lu in tumor” value in data set [3] stood at 0.92 % ID/g.

With `CCNC(=O)c1nnc(-c2cc(C(C)C)c(O)cc2O)n1-c1ccc(CN2CCN(C(=O)CCNC(=O)[C@@H](CCCCN)NC(=O)[C@@H](CCCCN)NC(=O)[C@@H](CCCCN)NC(=O)CN3CCN(CC(=O)O)CCN(CC(=O)O)CCN(CC(=O)O)CC3)CC2)cc1` [Conjugate 3], the level at time molar at 48 h is 91 nM in data set [1] (setting [4]); 4290 nM in data set [1] (setting [5]); 11 nM in data set [1] (setting [6]); 200 nM in data set [2] (Concentration in H69 tumor, H69 tumor model, 48 h, individual animals). Also, the level at time molar at 1 h in data set [1] (setting [5]) was 4520 nM; in data set [2] (Concentration in Mouse plasma, H69 tumor model, 1 h, individual animals), 1220 nM. Also, the level at time molar at 24 h in data set [1] (setting [6]) was 11 nM; in data set [2] (Concentration in Mouse liver, H69 tumor model, individual animals), 80 nM; in data set [2] (Concentration in Mouse plasma, H69 tumor model, individual animals), 38 nM. In the data set with H460 tumor model mice (H460 tumor model, 1 h, individual animals), the “Concentration in Mouse liver” value was 0.070 µM. Besides, the “Concentration in H69 tumor” value with H69 tumor model mice stood at 0.20 µM.

Regarding `CCNC(=O)c1nnc(-c2cc(C(C)C)c(O)cc2O)n1-c1ccc(CN2CCN(C(=O)CCNC(=O)CC[C@@H](NC(=O)CC[C@@H]3C(=O)[O][Lu]4[O]C(=O)CN5CCN(CC(=O)O)CCN3CCN(CC5)CC(=O)[O]4)C(=O)N3CCN(Cc4ccc(-n5c(C(=O)NCC)nnc5-c5cc(C(C)C)c(O)cc5O)cc4)CC3)CC2)cc1` [Conjugate 9], in data set [3], the “Average Lu in Liver” value is 2.92 % ID/g; the “Average Lu in kidney” value is 2.40 % ID/g; the “Average Lu in tumor” value is listed as 5.73 % ID/g; the “Tumor uptake (comparison)” value was “noticeably higher than Conjugate 1 and Conjugate 2”.

For `CCNC(=O)c1nnc(-c2cc(C(C)C)c(O)cc2O)n1-c1ccc(CN2CCN(C(=O)CCNC(=O)[C@@H](CCC(=O)O)NC(=O)[C@@H](CCC(=O)O)NC(=O)[C@@H](CCC(=O)O)NC(=O)COCCOCCNC(=O)CCCCn3cc(CN(CCCNC(=O)CC[C@H](C(=O)O)N4CCN5CCN6CCN(CC4)CC(=O)[O][Lu]([O]C(=O)C6)[O]C(=O)C5)C(=O)CCCNC(=O)CCCc4ccc(I)cc4)nn3)CC2)cc1` [Conjugate 10], in data set [3], the “Average Lu in Liver” value was 1.51 % ID/g; the “Average Lu in kidney” value was determined as 11.18 % ID/g; the “Average Lu in tumor” value is given as 8.49 % ID/g; the “Tumor uptake (comparison)” value is “noticeably higher than Conjugate 1 and Conjugate 2”.

As usually defined, the tissue uptake is the percentage of the injected dose found per gram of tissue. On to `CCNC(=O)c1nnc(-c2cc(C(C)C)c(O)cc2O)n1-c1ccc(CN2CCN(C(=O)CCNC(=O)[C@@H](CCC(=O)O)NC(=O)[C@@H](CCC(=O)O)NC(=O)[C@@H](CCC(=O)O)NC(=O)CN3CCN(CC(=O)O)CCN(CC(=O)O)CCN(CC(=O)O)CC3)CC2)cc1` [^177Lu-2, metal not drawn], for which the tissue uptake at 6 h worked out at 0.01 %ID/g in the data set “in vivo” (Radioactivity in Bone Marrow); 0.01 %ID/g in the data set “in vivo” (Radioactivity in Brain); 0.12 %ID/g in the data set “in vivo” (Radioactivity in Eyes); 4.29 %ID/g in “in vivo” (Radioactivity in Kidney); 0.33 %ID/g in the data set “in vivo” (Radioactivity in Liver); 1.21 %ID/g in the data set “in vivo” (Radioactivity in Tumor).

The record behind these values is patent US20250387492A1, “HSP90-TARGETING CONJUGATES AND FORMULATIONS THEREOF” (Fusion Pharmaceuticals Inc., priority 2018, published 2025).
